Experimental data taken from publication doi:10.1101/2025.05.03.651265.

What was measured:
[1] = target: E2CTD, C-terminal toxin domain of the GA1 T6SS effector E2 from Parabacteroides sp. D25 (Parabacteroides sp. D25); experiment: ITC; conditions: natural protein
[2] = target: E2CTD, C-terminal toxin domain of the GA1 T6SS effector E2 from Parabacteroides sp. D25 (Parabacteroides sp. D25); experiment: SEC-MALS; co-purified E2CTD-I2 complex at 2 mg/ml, Superdex 200 Increase 10/300, MiniDAWN detector and Optilab

I2^BU, divergent cognate I2 protein from B. uniformis 82G1
Kd [1]: 0.018 µM

cognate I2 immunity protein from Parabacteroides sp. D25, untagged, co-expressed with E2CTD (natural protein)
stoichiometry N [2]: 1

I2^PV, divergent cognate I2 protein from P. vulgatus AF31-3
Kd [1]: 0.0052 µM

cognate I2 immunity protein from Parabacteroides sp. D25, expressed and purified alone
Kd [1]: 0.027 µM
